{"source": "patent US20040071656A1", "about": "“Modulation of heat-shock-protein-based immunotherapies” (priority 2001, published 2004)", "key": {"human CD40 [1]": {"biological_target": "T1, human CD40 (Homo sapiens, UniProt P25942)", "T1 construct": "CD40 full-length cDNA was cloned by PCR; expressed in transfected cells", "T1 sequence (P25942 21-277)": "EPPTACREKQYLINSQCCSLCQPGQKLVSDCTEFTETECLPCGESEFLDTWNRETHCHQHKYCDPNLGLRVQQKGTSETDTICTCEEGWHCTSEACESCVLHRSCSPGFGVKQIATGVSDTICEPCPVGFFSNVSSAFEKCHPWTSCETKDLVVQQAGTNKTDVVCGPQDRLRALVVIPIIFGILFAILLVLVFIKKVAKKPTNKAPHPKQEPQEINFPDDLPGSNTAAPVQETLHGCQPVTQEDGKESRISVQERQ", "experiment": "Uptake of peptide C-FITC in HEK293T-CD40 cells, confocal microscopy", "format": "cell-based", "details": "0.5 μM protein, 5 μM peptide C-FITC, ADP, 30 min 0° C. then 15 min 37° C.", "method": "For experiments to study uptake of Hsp70/peptide C-FITC complex, HEK293T-CD40 and HEK293T-MCAT cells were seeded on collagen-coated cover slips 24 h prior to the experiment. For complex formation Hsp70, its N-terminal domain (N70) or its C-terminal domain (C70) were preincubated with a 10-fold molar excess of peptide C-FITC for 30 min at 37° C., as described above for the biotinylated proteins. HEK293T-CD40 and HEK293T-MCAT were incubated with 0.5 μM of Hsp70, N70 or C70, preincubated with 2 mM ADP and 5 μM peptide C-FITC, or 5 μM peptide C-FITC alone for 30 min on ice. Thereafter the cells were washed three times with medium, incubated for 15 min at 37° C., and fixed, embedded in Fluoromount-G and analyzed by confocal microscopy (LSM 510, Zeiss).\nNext, the binding of Hsp70-peptide complex to CD40 was studied, which results in the uptake of peptide. To this end, HEK293T-CD40 cells and HE293T-MCAT cells (not expressing CD40) were incubated with a fluorescent (FITC) derivative of peptide C for 30 min at 0° C. in the presence of ADP, with or without Hsp70 or its two domains. After removal of excess material, the cells were incubated at 37° C. for 15 min, fixed and then analyzed by fluorescence microscopy. […] (FIG. 6B, panel 1). […] Neither did HEK293T-MCAT control cells give rise to a signal under any of the conditions tested (not shown). We conclude that the specific interaction of CD40 with Hsp70-peptide complex mediates the uptake of peptide.\nDetails for FIG. 6. Binding of Hsp70 complex to CD40-expressing HEK293T cells induces signaling via p38 and causes peptide uptake. A. HEK293T-cells, stably transfected with cDNA encoding human CD40 or the unrelated membrane protein murine cationic amino acid transporter (MCAT) were incubated for 20 min at 37° C. with CD40L or with Hsp70, C70, N70, bacterial DnaK either in the presence of ADP or AMPPNP, or buffer alone. Thereafter cells were washed, solubilized in SDS-sample buffer, and analyzed by immunoblotting with antibodies directed against phosphorylated (active) p38. Blots were also developed with an antibody against tubulin in order to control for equal loading. B. Cells were incubated at 0° C. for 30 min with recombinant human Hsp70, N70, or C70, all in the presence FITC-labeled peptide, or with the FITC-labeled peptide alone. Thereafter cells were washed, incubated for 15 min at 37° C., and processed for fluorescence microscopy. Upper left panel: Hsp70, upper right panel: FITC-labeled peptide alone, lower left panel: C70, lower right panel: N70. Only cells stably transfected with CD40 are shown. Cell boundaries are emphasized with broken lines."}, "human CD40 [2]": {"biological_target": "T1, human CD40", "experiment": "Binding to Cos-7 cells transiently transfected with human CD40 cDNA, fluorescence microscopy", "format": "cell-based", "details": "250 nM biotinylated protein, 30 min at 0° C.", "method": "Cell culture and fluorescence microscopy. The murine macrophage cell line ANA1 was kindly provided by H. Wagner (Munich, Germany). ANA-1 cells were cultured in VLE-RPMI 1640 (Biochrom), supplemented with 10% FCS, 2 mM L-glutamine and antibiotics. For fluorescence microscopy, ANA1 cells were either stimulated with LPS (20 μg/ml, Sigma, Germany), or kept in an LPS-free medium (mock treatment) for 7 h. After stimulation, cells were harvested and incubated with 100 nM biotinylated Hsp70, biotinylated GST, or Hsp70/peptide C-biotin complex for 30 min at 0° C. in VLE-RPMI 1640. After incubation cells were processed for staining with streptavidin-TRITC (Sigma, Germany), fixed with paraformaldehyde and analyzed by fluorescence microscopy (Axiovert 35, Zeiss) as described (Sondermann et al., 2000). […] Twenty-four h post-transfection cells were incubated with 250 nM biotinylated Hsp70, biotinylated GST or Hsp70/peptide C-biotin complex for 30 min at 0° C. in DMEM, fixed, stained with streptavidin-TRITC (Sigma, Germany), and analyzed by fluorescence microscopy as described (Sondermann et al., 2000, idem). […] Stably transfected cell lines were analyzed by immunoblotting for CD40 expression using an anti-CD40 antibody (CSA180, Stressgen). […]\nMock-treated and LPS-stimulated ANA-1 cells were analyzed for their expression of CD40. […]"}}}
{"substance": "N70: Recombinant N-terminal ATPase domain of human Hsp70, residues 5-381 (SEQ ID NO: 1)", "values": [{"measurement": "uptake of fluorescent (FITC) peptide C into HEK293T-CD40 cells", "setting": "human CD40 [1]", "result": "did not result in a peptide signal above background"}]}
{"substance": "Hsp70: Recombinant human heat shock protein 70, expressed and purified as His-tagged protein", "values": [{"measurement": "binding to CD40-transfected Cos-7 cells", "setting": "human CD40 [2]", "result": "bound to the surface of transfected cells but not to untransfected cells"}, {"measurement": "uptake of fluorescent (FITC) peptide C into HEK293T-CD40 cells", "setting": "human CD40 [1]", "result": "fluorescent peptide was observed in punctuate intracellular structures only in cells expressing CD40"}]}
